# Laboratory results: patent US20220306744A1 (CRESCENDO BIOLOGICS, published 2022)
# B1: 1.109b (VHH)
# VHH: EVQLVESGGGLVKPGGSLRLSCAASGFTFSDESFTWMRQAPGKGLEWVSYISSGGGVKFYADSVKGRFTISRDNAKNSLYLQMNSLRAEDTAVYYCAREAPLRLGESPHDAFDISGQGTMVTVSS
# B2: 1.110b (VHH)
# VHH: EVQLVESGGGLVKPGGSLRLSCAASGFTFSDESNTWMRQAPGKGLEWVSYISSGGGVKFYADSVKGRFTISRDNAKNSLYLQMNSLRAEDTAVYYCAREAPLRLGESPHDAFDISGQGTMVTVSS
# B3: 1.111b (VHH)
# VHH: EVQLVESGGGLVKPGGSLRLSCAASGFTFSDESWTWMRQAPGKGLEWVSYISSGGGVKFYADSVKGRFTISRDNAKNSLYLQMNSLRAEDTAVYYCAREAPLRLGESPHDAFDISGQGTMVTVSS
# B4: 1.112b (VHH)
# VHH: EVQLVESGGGLVKPGGSLRLSCAASGFTFSDESITWMRQAPGKGLEWVSYISSGGGVKFYADSVKGRFTISRDNAKNSLYLQMNSLRAEDTAVYYCAREAPLRLGESPHDAFDISGQGTMVTVSS
# B5: 1.113b (VHH)
# VHH: EVQLVESGGGLVKPGGSLRLSCAASGFTFSDESSTWMRQAPGKGLEWVSYISSGGGVKFYADSVKGRFTISRDNAKNSLYLQMNSLRAEDTAVYYCAREAPLRLGESPHDAFDISGQGTMVTVSS
# B6: 1.114b (VHH)
# VHH: EVQLVESGGGLVKPGGSLRLSCAASGFTFSDESHTWMRQAPGKGLEWVSYISSGGGVKFYADSVKGRFTISRDNAKNSLYLQMNSLRAEDTAVYYCAREAPLRLGESPHDAFDISGQGTMVTVSS
# B7: 1.115b (VHH)
# VHH: EVQLVESGGGLVKPGGSLRLSCAASGFTFSDESGTWMRQAPGKGLEWVSYISSGGGVKFYADSVKGRFTISRDNAKNSLYLQMNSLRAEDTAVYYCAREAPLRLGESPHDAFDISGQGTMVTVSS
# B8: 1.2a (VHH)
# VHH: EVQLVESGGGLVQPGRSLRLSCAASGFTFDDYAMHWVRQAPGKDLEWVSGISWNGGSMGYAASVKGRFTISRDNAKNSLYLQMNSLRAEDTALYYCVKDKGPGLIGSTADYYGLDVWGQGTTVTVSS
# B9: 1.3a (VHH)
# VHH: EVQLLESGGGLVQPGRSLRLSCAASGFTFDDYAMHWVRQAPGKGREWVSGISWNSGSMGYADSVKDRFTISRDNAKNSLYLQMNSLRAEDTALYYCVKDKGPGLIGSTADYHGLDVWGQGTTVTVSS
# B10: 1.4a (VHH)
# VHH: EVQLLESGGGLVQPGRSLRLSCAASGFTFADYAMHWVRQAPGKGREWVSGISWNGGSMGYAESVKGRFTISRDNAKNSLYLQMNSLRAEDSALYYCVKDKGPGLTGTTADYYGMDVWGQGTTVTVSS
# B11: 1.5a (VHH)
# VHH: EVQLVESGGGLVQPGRSLRLSCAASGFTFDDYAMHWVRQAPGKGLEWVSGISWNGGSMGYADSVKDRFTISRDNAKNSLYLQMNRLRAEDTALYYCVKDKGPGLIGSTADYHGLDVWGQGTTVTVSS
# B12: 1.8a (VHH)
# VHH: EVQLVESGGGLVQPGRSLRLSCAASGFTFDDYAMHWVRQAPGKGLEWVSGISWNSGSMGYADSVKDRFTISRDNAKNSLYLQMNSLRAEDTALYYCVKDKGPGLIGSTADYHGLDVWGQGTTVTVSS
# B13: 1.9a (VHH)
# VHH: EVQLVESGGGCVQPGRSLRISCAASGFTFDDYAMHWVRQAPGKGREWVSGISWNGGSMGYAESVKGRFTISRDNAKNSLYLQMNSLRAEDSALYYCVKDKGPGLIGSTADYYGMDVWGQGTTVTVSS
# B14: 1.10a (VHH)
# VHH: EVQLVESGGGLVQPGRSLRLSCAASGFTFADYAMHWVRQAPGKGREWVSGISWNGGSMGYAESVKGRFTISRDNAKNSLYLQMNSLRAEDSALYYCVKDKGPGLTGTTADYYGMDVWGQGTTVTVSS
# B15: 1.11a (VHH)
# VHH: EVQLLESGGGFVQPGRSLRISCAASGFTFDDYAMHWVRQAPGKDLEWVSGISWNGGSMGYAESVKGRFTISRDNAKNSLYLKMNSLRVEDTALYYCVKDKGPGLIGSTADYYGLDVWGQGTTVTVSS
# B16: 1.12a (VHH)
# VHH: QVQLVESGGGLVQPGRSLRLSCAASGFTFDDYAMHWVRQAPGKGREWVSGISWNGGSMGYADSVKDRFTISRDNAKNSLYLQMNSLRAEDTALYYCVKDKGPGLTGSTADYHGMDVWGQGTTVTVSS
# B17: 1.13a (VHH)
# VHH: QVQLVESGGGLVQPGRSLRLSCAASGFTFDDYAMHWVRQAPGKDLEWVSGISWNGGSMGYAASVKGRFTISRDNAQNSLYLQMNSLRAEDTALYYCVKDKGPGLIGSTADYYGLDVWGQGTTVTVSS
# B18: 1.14a (VHH)
# VHH: EVQLVESGGGLVQPGRSLRLSCAASGFTFDGYAMHWVRQAPGKGREWVSGISWNSGSMGYAESVKGRFTISRDNAKNSLYLQMNSLRAEDSALYYCVKDKGPGLTGSTADYYGMDVWGQGTTVTVSS
# B19: 1.16a (VHH)
# VHH: QVQLVESGGGLVQPGRSLRLSCAASGFTFDDYAMHWVRQAPGKGREWVSGISWNGGSMGYAESVKGRFTISRDNAKNSLYLQMNSLRAEDSALYYCVKDKGPGLIGSTADYYGMDVWGQGTTVTVSS
# B20: 1.18a (VHH)
# VHH: QVQLVESGGGLVQPGRSLRLSCAASGFTFDDYAMHWVRQAPGKDLEWVSGISWNGGSMGYAASVKGRFTISRDNAKNSLYLQMNSLRAEDTALYYCVKDKGPGLIGSTADYYGLDVWGQGTTVTVSS
# B21: 1.21a (VHH)
# VHH: EVQLVESGGGLVQPGRSLRLSCAASGFTFDDYAMHWVRQAPGKDLEWVSGISWNGGSMGYAASVKGRFTISRDNAKNSLYLQMNSLRAEDTALYYCVREKGPGLTGSTADYYGLDVWGQGTMVTVSS
# B22: 1.22a (VHH)
# VHH: EVQLVESGGGLVQPGRSLRLSCAASGFTFDDYAMHWVRQAPGKDLEWVSGISWNGGSMGYAASVKGRFTISRDNAKNSLYLQMNSLRAEDTALYYCVREKGPGLTGSTADYYGLDAWGQGTMVTVSS
# B23: 1.23a (VHH)
# VHH: EVQLVESGGGLVQPGRSLRLSCAASGFTFDDYAMHWVRQAPGKDLEWVSGISWNSGSMGYAASVKGRFTISRDNAKNSLYLQMNSLRAEDTALYYCVREKGPGLTGSTADYYGLDVWGQGTMVTVSS
# B24: 1.24a (VHH)
# VHH: EVQLVESGGGLVQPGRSLRLSCAASGFTFDDYAMHWVRQAPGKDLEWVSGISWNSGSMGYAASVKGRFTISRDNAKNSLYLQMNSLRAEDTALYYCVREKGPGLTGSTADYYGLDAWGQGTMVTVSS
# B25: 1.25a (VHH)
# VHH: EVQLVESGGGLVQPGRSLRLSCAASGFTFDDYAMHWVRQAPGKDLEWVSGISWNGGSQGYAASVKGRFTISRDNAKNSLYLQMNSLRAEDTALYYCVREKGPGLTGSTADYYGLDAWGQGTMVTVSS
# B26: 1.27a (VHH)
# VHH: EVQLVESGGGLVQPGRSLRLSCAASGFTFDDYAMHWVRQAPGKDLEWVSGISWNGGSRGYAASVKGRFTISRDNAKNSLYLQMNSLRAEDTALYYCVREKGPGLTGSTADYYGLDAWGQGTMVTVSS
# B27: 1.28a (VHH)
# VHH: EVQLVESGGGLVQPGRSLRLSCAASGFTFDDYAMHWVRQAPGKDLEWVSGISWNAGSMGYAASVKGRFTISRDNAKNSLYLQMNSLRAEDTALYYCVREKGPGLTGSTADYYGLDAWGQGTMVTVSS
# B28: 1.29a (VHH)
# VHH: EVQLVESGGGLVQPGRSLRLSCAASGFTFDDYAMHWVRQAPGKDLEWVSGISWNSGSMGYADSVKGRFTISRDNAKNSLYLQMNSLRAEDTALYYCVREKGPGLTGSTADYYGLDVWGQGTMVTVSS
# B29: 1.30a (VHH)
# VHH: EVQLVESGGGLVQPGRSLRLSCAASGFTFDDYAGHWVRQAPGKDLEWVSGISWNGGSMGYAASVKGRFTISRDNAKNSLYLQMNSLRAEDTALYYCVREKGPGLTGSTADYYGLDAWGQGTMVTVSS
# B30: 1.31a (VHH)
# VHH: EVQLVESGGGLVQPGRSLRLSCAASGFTFDDYALHWVRQAPGKDLEWVSGISWNGGSMGYAASVKGRFTISRDNAKNSLYLQMNSLRAEDTALYYCVREKGPGLTGSTADYYGLDAWGQGTMVTVSS
# B31: 1.32a (VHH)
# VHH: EVQLVESGGGLVQPGRSLRLSCAASGFTFDDYAMHWVRQAPGKDLEWVSGISWNSGSMGYADSVKGRFTISRDNAKNSLYLQMNSLRAEDTALYYCVREKGPGLTGSTADYYGLDAWGQGTMVTVSS
# B32: 1.33a (VHH)
# VHH: EVQLVESGGGLVQPGRSLRLSCAASGFTFDDYAMHWVRQAPGKDLEWVSGISWNGGSYGYADSVKGRFTISRDNAKNSLYLQMNSLRAEDTALYYCVREKGPGLTGSTADYYGLDAWGQGTMVTVSS
# Target: T1, human PD-1 expressed on cells (CHO TREX human PD1 cell line, full-length human PD-1 sequence) (human, UniProt Q15116 21-288)
# T1 construct: Also used for human PD-1 on Jurkat reporter cells, on PathHunter cells and on PHA-stimulated human CD4+ T cells; also called CHO human PD1 cells; CHO human PD-1 cells
# T1 sequence (Q15116 21-288): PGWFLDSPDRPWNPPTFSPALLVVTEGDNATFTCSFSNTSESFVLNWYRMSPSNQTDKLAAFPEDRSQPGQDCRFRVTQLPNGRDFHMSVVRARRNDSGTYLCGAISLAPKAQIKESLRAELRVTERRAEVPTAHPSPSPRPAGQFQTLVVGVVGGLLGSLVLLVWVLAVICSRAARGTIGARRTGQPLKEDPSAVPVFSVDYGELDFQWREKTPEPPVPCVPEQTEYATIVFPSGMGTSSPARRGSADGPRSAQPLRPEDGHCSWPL
# Assay: worded summary of the screens
row,Binder,binding result
1,B1,binds
2,B2,binds
3,B3,binds
4,B4,binds
5,B5,binds
6,B6,binds
7,B7,binds
8,B8,binds
9,B9,binds
10,B10,binds
11,B11,binds
12,B12,binds
13,B13,binds
14,B14,binds
15,B15,binds
16,B16,binds

row,Binder,binding result
1,B17,binds
2,B18,binds
3,B19,binds
4,B20,binds
5,B21,binds
6,B22,binds
7,B23,binds
8,B24,binds
9,B25,binds
10,B26,binds
11,B27,binds
12,B28,binds
13,B29,binds
14,B30,binds
15,B31,binds
16,B32,binds
